Key:
miR2-FL-WT-T7 = molecular target: T1, miR2-FL-WT-T7 (mouse, UniProt Q80WQ6 1-827); test: FACS on MEF-DKO cells
T1 construct: on MEF-DKO cells
T1 sequence: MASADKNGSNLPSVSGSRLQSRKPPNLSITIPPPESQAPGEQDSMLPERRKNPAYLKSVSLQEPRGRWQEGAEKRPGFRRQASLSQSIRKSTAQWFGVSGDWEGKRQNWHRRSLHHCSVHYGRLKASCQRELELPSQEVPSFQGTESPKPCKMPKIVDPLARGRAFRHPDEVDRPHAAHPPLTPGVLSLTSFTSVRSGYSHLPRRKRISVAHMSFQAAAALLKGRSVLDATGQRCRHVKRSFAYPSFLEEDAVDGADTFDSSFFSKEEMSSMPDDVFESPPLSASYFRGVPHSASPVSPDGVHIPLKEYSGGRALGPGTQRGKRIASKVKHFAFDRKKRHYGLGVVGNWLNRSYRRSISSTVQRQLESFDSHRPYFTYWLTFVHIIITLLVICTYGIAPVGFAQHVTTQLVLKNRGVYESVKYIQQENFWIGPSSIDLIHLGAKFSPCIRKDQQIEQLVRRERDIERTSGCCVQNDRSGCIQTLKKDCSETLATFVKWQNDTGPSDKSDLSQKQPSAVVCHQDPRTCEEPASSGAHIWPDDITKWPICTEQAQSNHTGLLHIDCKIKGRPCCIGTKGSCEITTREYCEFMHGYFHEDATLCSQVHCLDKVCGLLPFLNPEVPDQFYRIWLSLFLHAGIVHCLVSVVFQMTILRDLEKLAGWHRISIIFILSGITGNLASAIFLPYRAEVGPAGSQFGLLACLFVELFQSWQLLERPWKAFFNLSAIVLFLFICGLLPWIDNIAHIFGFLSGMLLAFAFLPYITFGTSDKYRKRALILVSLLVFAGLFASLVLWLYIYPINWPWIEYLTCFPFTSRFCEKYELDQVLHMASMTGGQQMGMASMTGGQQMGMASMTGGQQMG

[1] = molecular target: T2, hiR2-FL-D535-T7 (deletion of D535) (human, UniProt Q6PJF5 1-856); test: FACS, MEF-DKO cells, 3 µg/ml
T2 construct: single amino acid deletion
T2 sequence: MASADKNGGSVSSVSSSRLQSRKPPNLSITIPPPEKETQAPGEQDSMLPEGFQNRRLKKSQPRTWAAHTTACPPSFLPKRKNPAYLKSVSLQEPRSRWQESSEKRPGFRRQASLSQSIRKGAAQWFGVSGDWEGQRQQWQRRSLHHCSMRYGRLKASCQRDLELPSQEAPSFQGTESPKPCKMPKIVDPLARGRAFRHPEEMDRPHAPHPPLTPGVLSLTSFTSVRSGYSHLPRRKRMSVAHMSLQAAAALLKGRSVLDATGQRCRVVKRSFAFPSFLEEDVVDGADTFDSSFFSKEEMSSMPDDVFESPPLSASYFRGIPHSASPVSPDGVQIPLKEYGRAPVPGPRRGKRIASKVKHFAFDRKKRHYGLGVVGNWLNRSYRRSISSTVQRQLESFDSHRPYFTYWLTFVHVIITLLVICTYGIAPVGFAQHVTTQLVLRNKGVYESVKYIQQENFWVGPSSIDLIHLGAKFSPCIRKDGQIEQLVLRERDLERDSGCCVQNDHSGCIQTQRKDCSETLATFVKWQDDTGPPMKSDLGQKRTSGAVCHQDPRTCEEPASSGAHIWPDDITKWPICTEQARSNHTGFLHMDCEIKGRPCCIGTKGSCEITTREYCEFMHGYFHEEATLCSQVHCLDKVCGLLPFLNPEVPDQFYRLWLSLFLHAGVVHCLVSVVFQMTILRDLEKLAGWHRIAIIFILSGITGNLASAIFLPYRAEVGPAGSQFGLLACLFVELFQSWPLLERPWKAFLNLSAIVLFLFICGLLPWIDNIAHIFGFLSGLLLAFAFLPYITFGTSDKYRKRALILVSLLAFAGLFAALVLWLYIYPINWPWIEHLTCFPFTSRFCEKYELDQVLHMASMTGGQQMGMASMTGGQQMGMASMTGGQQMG

Row | Binder | binding result (miR2-FL-WT-T7) | loss of binding vs wild type [1] [%]
1 | antibody 16 (antibody, V domains shown, mouse IgG, kappa light chain; also called clone #16; purified antibody 16) VH: QVTLKESGPGILQPSQTLSLTCSFSGFSLSTFALGVGWIRQPSGRGLEWLAHIWWDDDKYYNPALKSRLTISKDTSKNHVFLKIANVDTADTATYYCARITTYYYGMDYWGQGTSVTVSS VL: DIVLSQSPATLSVTPGDSVSLFCRASQSIGNHLHWYQQESHASPRLLIKYASQSISGIPSRFSGSGSGTDFTLSINSVETEDFGMYFCQQSYNWPLTFGAGTKLELK | no binding (tested: 3 µg/ml) | ≥ 95
2 | antibody 3 (antibody, V domains shown, mouse IgG, kappa light chain; also called clone #3; purified antibody 3) VH: QVTLKESGPGILQPSQTLSLTCSFSGFSLTTFAMGIGWVRQPSGKGLEWLAHIWWDGEKYNNPVLKSRLTISKDTSKNQVFLRIANVDTPDTATYYCARISSIYYIIDNWGQGTSVTVSS VL: DIVLTQSPATLSVTPGHSVSLSCRASQSISNNLHWYQKKSHESPRLLIKYVSQSISGIPSRFSGSGSGTDFTLSINSVETEDFGMYFCQQSYNWPLTFGAGTKLELK | – | ≥ 95
3 | antibody 34 (antibody, V domains shown, mouse IgG, kappa light chain; also called clone #34; purified antibody 34) VH: QVTLKESGPGILQPSQTLSLTCSFSGFSLSTFSLGVGWIRQSSGKGLEWLAHIWWDDEKYYNPALKSRLTISKDTSKNQVFLKIANVDAADTATYYCARAYYSKSYYALDYWGQGTSVTVSS VL: DIQMTQSPSSLSASLGERVSLTCRASQEISGYLSWLQQKPDGTIKRLIYAASTLDSGVPKRFSGSRSGSDYSLAISSLESEDFADYYCLQYANFPFTFGSGTKLEIK | no binding (tested: 3 µg/ml) | ≥ 95
4 | antibody 5 (antibody, V domains shown, mouse IgG, kappa light chain; also called clone #5; purified antibody 5) VH: QVTLKESGPGILQPSQTLSLTCSFSGFSLSTFGMGVGWIRQPSGKGLEWLAHIWWDDEKYYNSALKSRLTISKATSKNQAFLKIANVDTADTATYYCARISNYGSNYWYFNVWGTGTTVTVSS VL: QVVLTQSPALMSASPGEKVTMTCSAGSSVSCMYWYQQKPGSSPRVLIYDTSNLASGVPARFTGSGSGTSYSLTISRMEAEDAASYYCQQWNSYPLTFGAGTKLELK | no binding (tested: 3 µg/ml) | ≥ 95
5 | antibody 44 (antibody, V domains shown, mouse IgG, kappa light chain; also called clone #44; purified antibody 44) VH: QVTLKESGPGILQPSQTLSLTCSFSGFSLSTFGMGVGWIRQPSEKGLEWLAHIWWDDDKYYNPALKSRLTISKDTSKNQIFLKITNVDTAETATYYCSRIGNYGSNYWYFDVWGTGTTVTVSS VL: QIVLTQSPAVMSASPGEKVTMTCTASSSVYYMYWYQQTPGSSPRLLIYDTSNLASGVPVRFSGSGSGTSYSLTISRMEAEDAATYYCQQWNTYPLTFGAGTKLELK | no binding (tested: 3 µg/ml) | ≥ 95
6 | antibody 42 (antibody, V domains shown, mouse IgG, kappa light chain; also called clone #42; purified antibody 42) VH: QVTLKESGPGILQPSQTLSLTCSLSGFSLSTFGRGVGWIRQPSGKGLEWLAHIWWDDEKYYNPALKSRLTISKDTSKNQVFLRIANVDTADTATYYCARIQNYGSNYWYFDVWGTGTTVTVSS VL: LIVLTQSPAIMSASPGEKVTMTCGATSRISYMFWYQQKPGSSPRVLIYDTSNLASGVPVRFSGSGSGTSYSLTISRVEAEDVATYYCQQWNSYPLTFGAGTKLELK | no binding (tested: 3 µg/ml) | ≥ 95
7 | antibody 43 (antibody, V domains shown, mouse IgG, kappa light chain; also called clone #43; purified antibody 43) VH: QVALKESGPGILQPSQTLSLTCSFSGFSLSTFGMGVGWIRQSSGKGLEWLANIWWDDDKYYNPALKSRLTISKDASKNQAFLKIANVDTADTATYYCARIGNYGSNYWYFDVWGTGTTVTVSS VL: QIVLTQSPAIMSASPGERVTMTCSANSRISYMYWYQQKPGSSPRLLIYDTSNLASGVPVRFSGSGSGTSYSLTISRMEAEDAATYNCQQWSSYPLTFGAGTKLELK | no binding (tested: 3 µg/ml) | ≥ 95
8 | antibody 22 (antibody, V domains shown, mouse IgG, kappa light chain; also called clone #22; purified antibody 22) VH: QVTLKESGPGILQPSQTLSLTCSFSGFSLSTFGMGVGWIRQPSGKGLEWLAHIWWDDEKYYNSALKSRLTISKATSKNQVFLKIANVDTADTATYYCARISNYGSNYWYFNVWGTGTTVTVSS VL: QVVLTQSPALMSASPGEKVTMTCSAGSSVSYMYWYQQKPGSSPRVLIYDTSNLASGVPARFTGSGSGTSYSLTISRMEAEDAATYYCQQWNSYPLTFGAGTKLELK | no binding (tested: 3 µg/ml) | ≥ 95

Reference: patent US20240287172A1 (SCIRHOM, published 2024)
